In US20240092842A1:

Molecular target: PME crude extract of Arabidopsis thaliana stem (Arabidopsis thaliana)
Experiment: cell-based or functional assay

- PME enzyme activity in the reaction solution (pectin / bromothymol blue, OD 620 nm) at PME:GhPMEI39 1:2: 24%
Substance: recombinant GhPMEI39 protein (pColdTF-GhPMEI39 fusion protein with 6xHis-Tag, expressed in Escherichia coli BL21 (DE3))
